The series concerns the molecule itself. The experiment in a line: native gel or EMSA.

B1: PksA SAT-KS-MAT tridomain (domain or fragment)
chain: MAQSRQLFLFGDQTADFVPKLRSLLSVQDSPILAAFLDQSHYVVRAQMLQSMNTVDHKLARTADLRQMVQKYVDGKLTPAFRTALVCLCQLGCFIREYEESGNMYPQPSDSYVLGFCMGSLAAVAVSCSRSLSELLPIAVQTVLIAFRLGLCALEMRDRVDGCSDDRGDPWSTIVWGLDPQQARDQIEVFCRTTNVPQTRRPWISCISKNAITLSGSPSTLRAFCAMPQMAQHRTAPIPICLPAHNGALFTQADITTILDTTPTTPWEQLPGQIPYISHVTGNVVQTSNYRDLIEVALSETLLEQVRLDLVETGLPRLLQSRQVKSVTIVPFLTRMNETMSNILPDSFISTETRTDTGRAIPASGRPGAGKCKLAIVSMSGRFPESPTTESFWDLLYKGLDVCKEVPRRRWDINTHVDPSGKARNKGATKWGCWLDFSGDFDPRFFGISPKEAPQMDPAQRMALMSTYEAMERAGLVPDTTPSTQRDRIGVFHGVTSNDWMETNTAQNIDTYFITGGNRGFIPGRINFCFEFAGPSYTNDTACSSSLAAIHLACNSLWRGDCDTAVAGGTNMIYTPDGHTGLDKGFFLSRTGNCKPYDDKADGYCRAEGVGTVFIKRLEDALADNDPILGVILDAKTNHSAMSESMTRPHVGAQIDNMTAALNTTGLHPNDFSYIEMHGTGTQVGDAVEMESVLSVFAPSETARKADQPLFVGSAKANVGHGEGVSGVTSLIKVLMMMQHDTIPPHCGIKPGSKINRNFPDLGARNVHIAFEPKPWPRTHTPRRVLINNFSAAGGNTALIVEDAPERHWPTEKDPRSSHIVALSAHVGASMKTNLERLHQYLLKNPHTDLAQLSYTTTARRWHYLHRVSVTGASVEEVTRKLEMAIQNGDGVSRPKSKPKILFAFTGQGSQYATMGKQVYDAYPSFREDLEKFDRLAQSHGFPSFLHVCTSPKGDVEEMAPVVVQLAITCLQMALTNLMTSFGIRPDVTVGHSLGEFAALYAAGVLSASDVVYLVGQRAELLQERCQRGTHAMLAVKATPEALSQWIQDHDCEVACINGPEDTVLSGTTKNVAEVQRAMTDNGIKCTLLKLPFAFHSAQVQPILDDFEALAQGATFAKPQLLILSPLLRTEIHEQGVVTPSYVAQHCRHTVDMAQALRSAREKGLIDDKTLVIELGPKPLISGMVKMTLGDKISTLPTLAPNKAIWPSLQKILTSVYTGGWDINWKKYHAPFASSQKVVDLPSYGWDLKDYYIPYQGDWCLHRHQQDCKCAAPGHEIKTADYQVPPESTPHRPSKLDPSKEAFP
One may read the stoichiometry N as a count of units in the complex or per binding partner. On to B1, for which the “stoichiometry N” value stood at 2.
